Experimental data from US20030175904A1.

Experiments:
Experiment in all cases: cell-based or functional assay
[1] = biological target: baboon PERV-A receptor PBaR-A1 (baboon) (UniProt Q863Y8)
[2] = biological target: human PERV-A receptor PHuR-A1 (human) (UniProt Q9HAB3)
[3] = biological target: human PERV-A receptor PHuR-A2 (human) (UniProt Q9NWF4)
UniProt Q9NWF4, sequence (Q9NWF4 whole entry Q70R/V296M): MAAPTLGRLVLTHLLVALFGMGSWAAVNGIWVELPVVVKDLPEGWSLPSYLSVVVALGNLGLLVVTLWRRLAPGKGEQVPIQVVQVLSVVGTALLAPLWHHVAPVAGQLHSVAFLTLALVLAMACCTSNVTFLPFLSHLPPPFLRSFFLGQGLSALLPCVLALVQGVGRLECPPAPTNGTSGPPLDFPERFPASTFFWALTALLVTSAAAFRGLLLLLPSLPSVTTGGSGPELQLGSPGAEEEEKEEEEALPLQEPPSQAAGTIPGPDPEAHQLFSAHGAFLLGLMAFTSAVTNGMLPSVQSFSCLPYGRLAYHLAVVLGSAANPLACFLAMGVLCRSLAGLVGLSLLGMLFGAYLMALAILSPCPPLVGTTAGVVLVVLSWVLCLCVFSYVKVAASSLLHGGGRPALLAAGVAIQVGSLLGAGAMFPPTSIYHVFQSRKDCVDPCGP

UniProt Q9HAB3, sequence (Q9HAB3 whole entry G341S): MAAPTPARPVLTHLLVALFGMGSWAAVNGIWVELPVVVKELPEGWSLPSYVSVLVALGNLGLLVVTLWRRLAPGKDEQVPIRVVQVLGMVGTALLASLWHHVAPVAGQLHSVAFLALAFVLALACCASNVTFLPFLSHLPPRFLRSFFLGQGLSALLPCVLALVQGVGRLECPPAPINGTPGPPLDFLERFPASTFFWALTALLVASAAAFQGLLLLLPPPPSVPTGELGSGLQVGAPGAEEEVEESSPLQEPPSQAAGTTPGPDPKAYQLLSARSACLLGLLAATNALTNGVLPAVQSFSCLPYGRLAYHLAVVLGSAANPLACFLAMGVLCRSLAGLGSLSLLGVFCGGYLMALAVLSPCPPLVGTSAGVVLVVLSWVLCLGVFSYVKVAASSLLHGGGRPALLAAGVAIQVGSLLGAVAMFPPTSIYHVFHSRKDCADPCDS
UniProt Q863Y8, sequence (Q863Y8 whole entry): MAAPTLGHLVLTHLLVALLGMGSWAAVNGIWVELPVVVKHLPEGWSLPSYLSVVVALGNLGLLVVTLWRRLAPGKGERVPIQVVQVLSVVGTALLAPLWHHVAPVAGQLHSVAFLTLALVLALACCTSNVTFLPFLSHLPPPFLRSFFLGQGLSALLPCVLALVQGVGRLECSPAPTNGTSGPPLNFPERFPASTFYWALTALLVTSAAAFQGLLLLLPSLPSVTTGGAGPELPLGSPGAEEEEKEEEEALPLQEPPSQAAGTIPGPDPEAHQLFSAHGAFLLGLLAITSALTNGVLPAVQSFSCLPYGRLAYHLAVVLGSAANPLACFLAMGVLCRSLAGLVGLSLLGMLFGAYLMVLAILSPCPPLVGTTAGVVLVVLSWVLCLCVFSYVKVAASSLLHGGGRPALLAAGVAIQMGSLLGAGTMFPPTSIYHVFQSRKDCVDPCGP

Substance	Approximate LacZ pseudotype titer IU/ml [1] [IU/ml]	Approximate LacZ pseudotype titer IU/ml [2] [IU/ml]	Approximate LacZ pseudotype titer IU/ml [3] [IU/ml]
PERV-A 14/220 envelope (ENV) protein, carried on replication competent recombinant PERV-A/PERV-C virus particles	6000	4000	20000
TelCeB PERV-A18 LacZ pseudotype (PERV-A envelope)		6	1000
